In publication PMC4956467:

How the values were obtained:
Assay in all cases: BLI
[1] = molecular target: HIV-1 viral infectivity factor (Vif), full length, refolded, biotinylated (HIV-1) (UniProt P12504)
A3Fc-CD2 Y308A = A3Fc-CD2 Y308A (human, UniProt Q9HC16 197-221+Q8IUX4:220-373, Y308A;internal_change)
A3Fc-CD2 F309A = A3Fc-CD2 F309A (human, UniProt Q9HC16 197-221+Q8IUX4:220-373, F309A;internal_change)
A3Fc-CD2 W310A = A3Fc-CD2 W310A (human, UniProt Q9HC16 197-221+Q8IUX4:220-373, W310A;internal_change)
A3Fc-CD2 D313A = A3Fc-CD2 D313A (human, UniProt Q9HC16 197-221+Q8IUX4:220-373, D313A;internal_change)
A3Fc-CD2 Y307A = A3Fc-CD2 Y307A (human, UniProt Q9HC16 197-221+Q8IUX4:220-373, Y307A;internal_change)
A3Fc-CD2 Y314A = A3Fc-CD2 Y314A (human, UniProt Q9HC16 197-221+Q8IUX4:220-373, Y314A;internal_change)

In the case of “chimeric A3F C-terminal domain (A3Fc-CD2), wild type (from UniProt Q9HC16 197-221; Q8IUX4 218-373) (domain or fragment)”, the Kd [1] is reported as 1.1 µM.

“A3Fc-CD2 L263A (from UniProt Q9HC16 197-221; Q8IUX4 218-373) (domain or fragment)” was tested, and the Kd [1] was 1.1 µM.

B1: 42-mer ssDNA, viral U5 end of 3'-LTR (ssDNA)
DNA: TCCCTCAGACCCTTTTAGTCAGTGTGGAAAATCTCTAGCAGT
With B1 the Kd (A3Fc-CD2 Y308A) was 18 µM, the Kd (A3Fc-CD2 F309A) was 31 µM and the Kd (A3Fc-CD2 W310A) was 27 µM. The Kd (A3Fc-CD2 D313A) was 220 µM, the Kd (A3Fc-CD2 Y307A) was 410 µM and the Kd (A3Fc-CD2 Y314A) was 68 µM.
